These results are taken from patent publication US20250179550A1, “Methods to imbue polymeric materials with new structures and functions” (The Regents of the University of California, priority 2022, published 2025).

Data set [1] concerns MicD-F. Kind of data set: Reaction of protein substrates (mCherry and Rop variants) with MicD-F, LC-MS deconvoluted mass. The format is biochemical, Microcystis aeruginosa. The following applies: for cyclodehydration of mCherry variants to thiazoline (loss of water) / cyclodehydration of Rop variants to thiazoline: 50 mol % MicD-F; for cyclodehydration of mCherry variants to thiazoline (loss of water): 24 hours. On the procedure: Reactions of proteins with MicD-F were performed in the manner described above with minor modifications. Namely, the substrate stock was a 1 mM solution of protein in 20 mM HEPES, 150 mM NaCl, 1 mM TCEP, pH 7.4.
(§1) Unprocessed reaction mixture (1 μL) was used for LC-MS analysis which was performed on an Agilent 1290 Infinity II HPLC connected to an Agilent 6530B QTOF AJS-ESI. The mobile phase for LC-MS was water and acetonitrile with 0.1% (v/v) formic acid and a flow rate of 0.4 mL/min. Each sample was injected onto a Poroshell 300SB-C8 column (2.1×75 mm, 5-Micron, room temperature, Agilent) using a linear gradient from 5 to 55% acetonitrile over 8 minutes after an initial hold at 5% acetonitrile for 2 minutes (0.4 mL/min). The following parameters were used during acquisition: Fragmentor voltage 225 V, gas temperature 300° C., gas flow 10 L/min, sheath gas temperature 350° C., sheath gas flow 11 L/min, nebulizer pressure 35 psi, skimmer voltage 65 V, Vcap 5000 V, 1 spectra/s. Intact protein masses were obtained via deconvolution using the Maximum Entropy algorithm in Mass Hunter Bioconfirm (V10, Agilent).

A short description of data set [2]: Temperature stability of MicD-F. The format is physicochemical.
For data set [3], the system named is MicD-F and ArtGox. Kind of data set: Reaction of protein substrates with MicD-F and ArtGox in tandem, LC-MS deconvoluted mass. The format is biochemical, Microcystis aeruginosa; Arthrospira platensis. The following applies: 50 mol % MicD-F, 80 mol % ArtGox, 24 hours, pH 9.0, 37° C. On the procedure: Reactions of proteins with MicD-F and ArtGox were performed in the manner described above with minor modifications. The substrate stock was a 1 mM solution of protein in 20 mM HEPES, 150 mM NaCl, 1 mM TCEP, pH 7.4. Reactions were carried out at either 25° C. or 37° C. as indicated.
as §1

Data set [4] is described as follows: Circular dichroism of Rop variants (wavelength scans and temperature melts). The format is physicochemical. Conditions: CD at 222 nm; for TM (melting temperature): 20 μM, 10 mM phosphate, 100 mM NaCl, 150 μM TCEP, pH 7.0. The procedure:
RopN, RopM, and RopC were exchanged into CD buffer (10 mM phosphate, 100 mM NaCl, 150 μM TCEP, pH 7.0) using Amicon Ultra-0.5 mL centrifugal filters (MilliporeSigma, Burlington, MA) with a 3 kDa molecular weight cut-off according to the manufacturer's instructions and then diluted with the same buffer to a concentration of 20 μM. For CD analysis each Rop variant was transferred to a 1 mm quartz cuvette. Wavelength and temperature dependent CD spectra were collected with an AVIV Biomedical, Inc. (Lakewood, NJ) Circular Dichroism Spectrometer Model 410. For wavelength-dependent spectra, initial scans were performed from 200 to 300 nm at 25° C. in 2 nm increments with an averaging time of 5 seconds. For temperature melt experiments, the signal was monitored at 222 nm with an averaging time of 5 seconds. Temperature melts were performed from 5 to 90° C. in 1° C. increments with equilibration for 2 minutes before each measurement. Following the temperature melt the sample was returned to 25° C. and the wavelength-dependent CD spectra was measured once more to assess the reversibility of the melt. Raw data (mdeg) were converted to molar ellipticity ([Θ], in deg*cm^2*dmol^−1) by
where M is the mean residual weight (116.00 g/mol for RopN, RopM, and RopC), L is the pathlength of the cuvette in centimeters, and C is the concentration of the sample in g/L.7 The melting temperature was determined by fitting the molar ellipticity as a function of temperature to a Boltzmann sigmoidal curve using GraphPad Prism (Version 7.04).
CD analysis of RopC-U and RopC-Z was performed as described for RopN, RopM, and RopC with the following modifications. Temperature melts were performed from 5 to 90° C. in 2.5° C. increments. Before measuring the temperature melt for RopC-Z, the protein was refolded by performing an initial melt from 5 to 90° C. in 2.5° C. increments as described.
A general note: Circular dichroism is widely used to follow secondary structure.

Data set [5] can be described thus: Analytical size-exclusion chromatography of Rop variants. The format is physicochemical. The following applies: 50 μM. The procedure:
To assess the homogeneity of isolated Rop variants, a solution of each protein was prepared (250 μg at 50 μM) in running buffer (10 mM phosphate, 100 mM NaCl, 150 µM TCEP, pH 7.0). A Superdex® 75 Increase 10/300 GL column (stored and operated at 4° C.) was washed with 2 column volumes (CV) of degassed and sterile filtered MilliQ water. The column was then equilibrated in running buffer for 2 CV. Each sample (500 μL) was applied to a 500 μL sample loop. The sample loop was washed with 2 mL of running buffer at 0.8 mL/min to load the sample onto the column. The sample was then eluted from the column by flowing running buffer at 0.8 mL/min for 1.30 CV. To assess column performance, a gel filtration standard (Bio-Rad Laboratories, Hercules, CA, catalog number 151-1901) containing 670 kDa, 158 kDa, 44 kDa, 17 kDa, and 1.35 kDa standards was used according to the manufacturer's instructions.
Background: Size exclusion chromatography separates by hydrodynamic size, large species first.

B1: mCherry192+ (protein, listed as Discosoma sp.)
chain: MDYKDDDDKMVSKGEEDNMAIIKEFMRFKVHMEGSVNGHEFEIEGEGEGRPYEGTQTAKLKVTKGGPLPFAWDILSPQFMYGSKAYVKHPADIPDYLKLSFPEGFKWERVMNFEDGGVVTVTQDSSLQDGEFIYKVKLRGTNFPSDGPVMQKKTMGWEASSERMYPEDGALKGEIKQRLKLKDGGHYDAEVKTTYKAKKPVMCAYDGQLPGAYNVNIKLDITSHNEDYTIVEQYERAEGRHSTGGMDELYKHHHHHH
Take B1: the “cyclodehydration of mCherry variants to thiazoline (loss of water)” value was “no evidence of cyclodehydration” in data set [1] (pH 9.0, 37° C.) and “no evidence of cyclodehydration” in data set [1] (pH 9.0, 42° C.).

B2: MicD-F: constitutively activated cyclodehydratase, leader peptide fused to N-terminus of MicD, SEQ ID NO: 7 (protein, listed as Microcystis aeruginosa)
chain: MSHHHHHHDYDENLYFQGSRLTAGQLSSQLAELSEEALGDAGAGAGAGAGAKLMQSTPLLQIQPHFHVEVIEPKQVYLLGEQANYALTGQLYCQILPLLDGQHSREQIVEKLDGEVPSEYIDYVLDRLAEKGYLTEAAPELSSEVAAFWSELGIAPPVAAEALRQSVTLTPVGNISEVTVAALTTALRDIGISVQTPTEAGSPTALNVVLTDDYLQPELAKINKQALESQQTWLLVKPVGSVLWLGPVFVPGKTGCWDCLAHRLRGNREVEASVLQQKQAQQQRNGQSGSVIGCLPTARATLPSTLQTGLQFAATEIAKWIVKHHVKATAPGTVFFPTLDGKIITFNHTVIDLKSHVLVRRSQCPSCGDRQILHRQGFEPVKLVSRRKHFTHDGGHRAFTPEQTVQKYQHLVSPITGVVTELVRLTDPANPLVHTYKAGHAFGSATTLRGLRNTLKYKSSGKGKTDIQSRASGLCEAIERYSGIFQGDEPRKRATLAELGDLALHPESLLYFSNTQYANREELNAQGSAAAYRWIPNRFDVSQAIDWTPVWSLTEQKHKYVPTAFCYYGYPLPEEQRFCKADSNGNAAGNTLEEAILQGFLELVERDSIAMWWYNRIRRPAVDLSTFDEPYFVDLQQFYQQQNRELWVLDVTADLGIPAFAGFSRRTVGTSERISIGFGAHLDPTIAILRALTEVSQVGLELDKIPDDKLDGESKDWMLNVTVENHPWLAPDPSVPMKTASDYPKRWSDDIHTDVMNCVKTAQTAGLEVMVLDQTRPDIGLNVVKVIIPGMRTFWTRFGQGRLYDIPVKLGWLDAPLAEEELNQTNIPF
Turning to B2, the “highest temperature at which MicD-F remained stable” value in data set [2] came to 42 °C.

B3: mCherry174+ (protein, listed as Discosoma sp.)
chain: MDYKDDDDKMVSKGEEDNMAIIKEFMRFKVHMEGSVNGHEFEIEGEGEGRPYEGTQTAKLKVTKGGPLPFAWDILSPQFMYGSKAYVKHPADIPDYLKLSFPEGFKWERVMNFEDGGVVTVTQDSSLQDGEFIYKVKLRGTNFPSDGPVMQKKTMGWEASSERMYPEDGALKGEIKQRLKLKDMCAYDGGGHYDAEVKTTYKAKKPVQLPGAYNVNIKLDITSHNEDYTIVEQYERAEGRHSTGGMDELYKHHHHHH
Take B3: the “cyclodehydration of mCherry variants to thiazoline (loss of water)” value is reported as “no evidence of cyclodehydration” in data set [1] (pH 9.0, 37° C.) and “no evidence of cyclodehydration” in data set [1] (pH 9.0, 42° C.).

B4: RopC: Rop variant with loop sequence GGGGMCAYDG, SEQ ID NO: 3 (protein, listed as Escherichia coli)
chain: MDYKDDDDKMTKQEKTALNMARFIRSQTLTLLEKLNELGGGGMCAYDGDEQADICESLHDHADELYRSCLARFGDDGENLHHHHHH
As for B4, the “cyclodehydration of Rop variants to thiazoline” value (“cyclodehydration of Rop variants” for short) in data set [1] (pH 9.0, 37° C., 16 h) is on record as “clean conversion”. The “conversion of RopC into RopC-U” value in data set [1] (up to 50 μM MicD-F, 16 h, 25° C.) is “minimal”. Besides, the “conversion to the thiazole-modified protein” value in data set [3] is on record as “complete conversion”. For the same molecule, in data set [4], the “unfolding behaviour in temperature melt” value is “melted cooperatively and reversibly”; the “TM (melting temperature)” value came to 28 °C. Also, the “migration / homogeneity on SEC” value in data set [5] is “discrete dimers”.

B5: RopN: Rop variant with loop sequence MCAYDGGGGG, SEQ ID NO: 1 (protein, listed as Escherichia coli)
chain: MDYKDDDDKMTKQEKTALNMARFIRSQTLTLLEKLNELMCAYDGGGGGDEQADICESLHDHADELYRSCLARFGDDGENLHHHHHH
Turning to B5, in data set [1] (pH 9.0, 37° C., 16 h), the “cyclodehydration of Rop variants” value is recorded as “unreactive”. In addition, in data set [4], the “unfolding behaviour in temperature melt” value is reported as “melted non-cooperatively” and the “TM (melting temperature)” value stood at 43 °C. Moreover, the “migration / homogeneity on SEC” value in data set [5] is given as “heterogeneous mixture”.

B6: RopM: Rop variant with loop sequence GGMCAYDGGG, SEQ ID NO: 2 (protein, listed as Escherichia coli)
chain: MDYKDDDDKMTKQEKTALNMARFIRSQTLTLLEKLNELGGMCAYDGGGDEQADICESLHDHADELYRSCLARFGDDGENLHHHHHH
On to B6, for which the “cyclodehydration of Rop variants” value in data set [1] (pH 9.0, 37° C., 16 h) was “reacted partially”. Also, in data set [4], the “unfolding behaviour in temperature melt” value was “melted cooperatively and reversibly”; the “TM (melting temperature)” value is 32 °C. Besides, the “migration / homogeneity on SEC” value in data set [5] is recorded as “discrete dimers”.
